Source: patent US20160200799A1

Legend:
Assay in all cases: ELISA on coated viral particles
[1] = biological target: Influenza virus A/Brisbane/59/2007 (H1N1) (Influenza A virus A/Brisbane/59/2007 (H1N1))
[2] = biological target: Influenza virus A/Panama/2007/1999 (H3N2) (Influenza A virus A/Panama/2007/1999 (H3N2))
[3] = biological target: Influenza virus A/New Caledonia/20/1999 (H1N1) (Influenza A virus A/New Caledonia/20/1999 (H1N1))
[4] = biological target: Influenza virus A/California/7/2009pdm (H1N1pdm) (Influenza A virus A/California/7/2009pdm (H1N1pdm))

| Binder | Binding activity (absorbance at 492 nm) [1] | Binding activity (absorbance at 492 nm) [2] | Binding activity (absorbance at 492 nm) [3] | Binding activity (absorbance at 492 nm) [4] |
| --- | --- | --- | --- | --- |
| Group 52 representative clone F083-328, Fab-cp3-type antibody (Fab, V domains shown) VH: QVQLVQSGAEVKKPGSSVKLSCKASGGTLRSYALSWVRQAPGEGLEWMGGISAIFNTATYAQNVQGRVTITADESTNTFYLEVSSLRSDDTAVYYCATSGTYYVSFFDYWGQGTLVTVSS VL: DIVLTQSPSTLSASVGDRVTLTCRASQSIGSLMAWYQQQPGKPPKLLIYRASNLETGVPSRFTGSGSGTEFALTISSLQPDDVGTYYCQHFKTFSRTFGQGTKVEIK | 2.43 | 0.22 | 2.66 | 2.02 |
| Group 47 representative clone F083-308, Fab-cp3-type antibody (Fab, V domains shown) VH: QVQLVQSGAEVKKPGSSVKVSCKASGGIFRSHAISWVRQAPGQGLEWMGGIIAIFGTTHYAQQFQGRVTITADESTSTVYMELSTLRSEDTAVYYCARGPNYFESYFDNWGQGTLVTVSS VL: EIVLTQSPATLSLSPGERATLSCRASQTISSYLAWYQQKPGQAPRLLIYGASNRATGIPARFSGSGSGTDFTLTINSLEPEDFAVYYCQQRSSWPPITFGQGTRLEIK | 1.82 | 0.16 | 1.79 | 1.21 |
| Group 65 representative clone F083-366, Fab-cp3-type antibody (Fab, V domains shown) VH: QVQLVQSGSEVKKPGSSVKVSCKASRGIFSSYAISWVRQAPGQGLEWMGAVIPMFGTLKYAENFQGRITISADKSMSAAYMELSSLRSEDTAVYYCARNYYGSGTYFNDAFDIWGQGTMVTVSS VL: QSVLTQPPSGSGAPGQRVTISCTGGNSNIGAGYDVNGYQQLPGKAPKLLIYGNNNRPSGVPDRFSGSKSGTSASLAITGLQVEDEAHYYCQSYDNGLSGSVFGGGTQLTVLG | 2.84 | 0.18 | 2.93 | 1.13 |
| Group 3 representative clone F081-281, Fab-cp3-type antibody (Fab, V domains shown) VH: QVQLVQSGSEVKKPGSSVKVSCSFKASGGIISKYAITWVRQAPGQGLEWMGGIIAIFGSTNYAQKFQGRLTITSDESTSTAYMELSSLTSEDTAVYYCGRGPHYYESHLDYWGQGTLVTVSS VL: EIVLTQSPGTLSLSPGERATLSCRASQGMSSSFLAWYQQKPGQPPRLLISGASTRATGIPDRFSGSGSGTDFTLTINRLEPEDFAVYYCQQYGSSPRTFGQGTKVEIK | 2.98 | 0.18 | 2.86 | 2.87 |
| Group 43 representative clone F081-007, Fab-cp3-type antibody (Fab, V domains shown) VH: QVQLQQSGAEVKKPGSSVKVSCKASGGIFRKNAISWVRQAPGQGLEWMGGISAIFGTANYAQKFQGRVTITADESSNTVYMDLSRLRSEDTAIYYCASHPTYHFDKSGYRFDSWGQGTLVTVSS VL: QSVLTQPPSVSAAPGQKVTISCSGSSSNIGNNYVSWYQQLPGTAPKLLIYDNNKRPSGIPDRFSGSKSGTSATLGITGLQTGDEADYYCGTWDSSLSAGVFGGGTKLTVLG | 2.72 | 0.14 | 2.84 | 2.33 |
| Group 1 representative clone F080-227, Fab-cp3-type antibody (Fab, V domains shown) VH: QVQLQESGAEVKKPGSSVKVSCKASGGIFRRNAISWVRQAPGQGLEWMGGIIAIFGTANYAQKFQGRVTITADESTSTVYMELSSLRPEDTAVYYCARGPNYYENFFDYWGQGTLVTVSS VL: DIVMTQSPSSLSASVGDRLDLTCRASQDIANSLAWYKQRPGKAPELLVFGASRLEGGVPSRFSGTRAGTDFTLTISSLQPEDLGTYFCQQYFSFPRTFGQGTTLDLR | 3.1 | 0.14 | 3.15 | 2.95 |
| Group 2 representative clone F082-220, Fab-cp3-type antibody (Fab, V domains shown) VH: QVQLVQSGAEVKKPGSSVKVSCKASGGIFRSNAVSWVRQAPGQGLEWMGGIIAIFGTPKYAQKFQGRVTITADESTSTVYMELSGLRYEDTAVYYCARGPNYYESYFDYWGQGTLVTVSS VL: DIVMTQSPPSLSASVGDRVTITCRASQGISNYLAWYQQKPGKAPKLLIFGASTLHSGVSSRFSGSGSGPDFTLTISSLQPEDAATYYCQKYHSAPLTFGGGTKVEMK | 3.15 | 0.16 | 3.37 | 2.72 |
| Group 36 representative clone F082-243, Fab-cp3-type antibody (Fab, V domains shown) VH: QVQLQQSGAEVKKPGSSVKVSCKASGGIFRKNAISWVRQAPGQGLEWMGGIIAIFGTANYAQKFQGRVTITADDSTNTVYMELTSLRYEDTAVYYCARGPNYYENYFDFWGQGTLVTVSS VL: EIVLTQSPSSLSASLRDTVTITCRTSQAITNYLAWYQQRPGKAPKLLIYAASVLQSGVPSRFSGSGSGTDFTLTISSLQPEDFATYYCQKYDSAPYTFGQGTKLEIK | 1.05 | 0.13 | 0.96 | 0.8 |
| Group 64 representative clone F083-301, Fab-cp3-type antibody (Fab, V domains shown) VH: QVQLVQSGAEVKKPGSSVKVSCKASGGIFNSNAISWVRQAPGQGLEWMGGIIGIFGTANYAQKFQGRVTIAADQSTNTVFMELSSLTSEDTAVYFCARSRGYSFGYGTDYFDYWGQGTLVTVSS VL: DIVMTQSPSTLSASVGDRVTITCRASQSISSWLAWYQQAPGKAPKLLIYEASKLQSGVPSRFSATGSGTEFTLTIASLQPEDFAIYYCQHYEAYPFSFGPGTKLDVK | 1.44 | 0.16 | 1.34 | 0.46 |
| Group 44 representative clone F081-008, Fab-cp3-type antibody (Fab, V domains shown) VH: QVQLVQSGAEVKKPGSSVKVSCKASGGTFSSFSTYTISWVRQAPGQGLEWMGRSIPLLGITNYAQKFQGRVTITADISTSTAYMELSSLRSEDTAVYYCARYQSSDYYNSEYFQHWGQGTLVTVSS VL: EIVLTQSPGTLSLSLGERVTLSCRASQNVGTNYLAWYQQKPGQAPRLLIYGASSRATGVPDRFSGSGSGTDFTLTISRLAPEDFAVYYCQQYSSSPLTFGGGTKLEIK | 2.89 | 0.17 | 3.25 | 0.43 |
| Group 37 representative clone F083-311, Fab-cp3-type antibody (Fab, V domains shown) VH: QVQLVQSGSEVKKPGSSVKVSCKASGGIFRTNAISYVRQAPGQGLEWMGGITAIFGTPNYAQKFQGRVTIIADESTSTVYMELGSLTSEDTAVYYCATSGTYYVSYFDSWGQGTLVTVSS VL: DIVMTQSPGTLTLSPGERATLSCRASQSLYSSHLAWYQQKPGQPPRLLIYGASTRAPGTPDRFSGSGSGTDFTLTITALDPEDSAVYYCQQYGSSPITFGQGTRLEIK | 2.64 | 0.15 | 2.59 | 1.82 |
| Group 48 representative clone F083-389, Fab-cp3-type antibody (Fab, V domains shown) VH: QVQLVQSGAEVKKPGSSVKVSCKASGDIFNKFAITWVRQAPGQGLEWMGGITALFATTSYAQKFQDRVTINWDESTTTAFMELSSLRFEDTAVYYCARGPNYYETYLDNWGQGTLVTVSS VL: EIVLTQSPTILSASVGDRVTITCRASQSISKWLAWYQQKPGKVPKLLIYMASTLESGVPSRFSGSGSGSEFTLTISSLQPGDFATYYCQQYNSYPRTFGQGTKVEINV | 2.83 | 0.14 | 2.72 | 2.49 |
| Group 39 representative clone F082-237, Fab-cp3-type antibody (Fab, V domains shown) VH: QVQLVQSGAEVKKPGSSVKVSCKASGGIFNKYGISWVRQAPGQGLEWMGGILAIFGTTNYAQKFQGRVTISADESSTTVYMELSSLTSEDTAVYYCARGNTYYSSYFDQWGQGTLVTVSS VL: QSVLTQPPSVSVAPGQTATITCGGDKIGTGPVHWYQQMPGRAPVLLIYASTHRPSRIPERFSGSKSDNTATLSISGVGVGDEADYYCQMWDSSSVHPIVFGGGTKLTVLS | 1.95 | 0.13 | 1.94 | 2.62 |
| Group 54 representative clone F083-354, Fab-cp3-type antibody (Fab, V domains shown) VH: QVQLVQSGSEVKKPGSSVKVSCKASGGIFNSYGISWVRQAPGQGLEWMGGILAIFGTTNYAQKFQGRVTITADDSSKTVYMELSSLTSEDTAVYYCARGSTYYSSYFDQWGQGTLVTVSS VL: DIQMTQSPSSLSASVGDRVTITCRASQGIRNSLAWYQQKPGQVPKLLIYSATTLRSGVPYRFSGSGSGTDFTLTISGLQPEDVGTYFCHRYDSAPLTFGGGTRVALK | 3.01 | 0.16 | 3.05 | 2.54 |
| Group 35 representative clone F082-117, Fab-cp3-type antibody (Fab, V domains shown) VH: QVQLVQSGSEVKKPGSSVKVSCKSSGGILRRSAISWVRQAPGQGLEWMGGILAIFGTTKYAQKFQGRITITADESTNTVHMELSSLRPDDTAVYYCAGGPHYYVSYFDSWGQGTLVTVSS VL: DIQMTQSPATLSLSPGERATLSCRASQSVRSYLAWYQQKPGQAPRLLIYDASNRATGIPARFSGSGSGTEFTLTISRLEPEDFAVYYCQQRSNWLFTFGPGTKVDFK | 3.26 | 0.15 | 3.35 | 3.11 |
| Group 38 representative clone F082-338, Fab-cp3-type antibody (Fab, V domains shown) VH: QVQLQESGAEVKKPGSSVKVSCKASGGPFRSHAISWVRQAAGQGLEWMGGITAVFGTANYAQKFQGRVTITADESTNIVSMELSSLRSEDTAIYYCARSLGYHTQYNGMDVWGQGTTVTVSS VL: DVVMTQSPSSVSASVGDRVTITCRASQGISSWLAWYQQKPGKAPKLLIYAASSLQSGVPSRFSGSGSGTDFTLTISSLQPEDFATYYCQQANSFPITFGQGTRLEIK | 2.93 | 0.13 | 3.01 | 2.82 |
